Data taken from patent US20220041753A1 (H LEE MOFFITT CANCER CENTER AND RESEARCH INSTITUTE, published 2022).

Molecular target: T1, ZNRF3 ECD (UniProt Q9ULT6 56-219, limits assumed)
T1 construct: extracellular domain; also called ZNRF3 extracellular domain; fluorescently labeled ZNRF3 ECDs
T1 sequence (looked up): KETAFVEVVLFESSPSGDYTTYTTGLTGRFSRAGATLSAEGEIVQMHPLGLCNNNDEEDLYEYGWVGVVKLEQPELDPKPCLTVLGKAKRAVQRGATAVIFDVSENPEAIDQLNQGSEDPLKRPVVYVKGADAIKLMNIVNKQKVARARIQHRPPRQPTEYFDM
Experiment: surface plasmon resonance (FIG. 3B)

Kd: 80 nM
B1: ZNRF3-specific scFv "Z6" (scFv)
scFv: ASQVQLVQSGAEVKNPGASVKVSCKASGYAFTSYGISWVRQAPGQGLEWMGWISAYTRNTNYAQKFQGRVTLTTDTSTSTAYMELRSLRSDDTAIYYCARDARYSLGVGAFDVWGQGTMVTVSSGILGSGGGGSGGGGSGGGGSETTLTQSPAFMSATPGDKVSISCKASRDIDDDLNWYQQKPGEAAISIIQEATTLVPGIPPRFSGSGYGTDFTLTINNIESEDAAYYFCLQHDDVPYTFGQGTKLEIKSGIL
notes: the display fusion is not described; also called ZNRF3-specific single-chain antibody variable fragment (scFv)
